Data taken from patent US9364556B2, “Drug conjugate comprising drug linked to human c-Met antibody, and use therefor” (Korea Research Institute of Bioscience and Biotechnology, priority 2011, dated 2016).

B1: modified B7 antibody: B7 antibody with a cysteine residue added to the heavy-chain variable region (SEQ ID NO: 8); light-chain SEQ ID NO: 11 (antibody, V domains shown)
VH: MGWSYIILFLVATAADVHSQVQLQEWGAGLLKPSETLSLTCAVSGGSLSGHYWSWVRLPPGKGLEWIGEISHSGNTNYNSSLKSRASISIDTSKNEYSLNLKSVTAVDTAVYYCARFYGDYPSSYGMDVWGQGTTVTVSSC
VL: MGWSYIILFLVATAADVHSQSALTQPASVSGSPGQSITISCTGTISDIGTYDFVSWYQHKPGKAPKLLIFDVNNRPSGVSSRFSGSKSDNTASLSISGFQAEDEADYYCSSYTDNRGLVLFGGGTKLTVLRS
modifications: a heavy chain variable region with extra cysteine; a light chain variable region
B2: B7 antibody: c-Met-specific human whole IgG from B7 phage variable region; heavy-chain variable region SEQ ID NO: 7, light-chain SEQ ID NO: 11 (antibody, V domains shown)
VH: MGWSYIILFLVATAADVHSQVQLQEWGAGLLKPSETLSLTCAVSGGSLSGHYWSWVRLPPGKGLEWIGEISHSGNTNYNSSLKSRASISIDTSKNEYSLNLKSVTAVDTAVYYCARFYGDYPSSYGMDVWGQGTTVTVSS
VL: B1 VL
modifications: a heavy chain variable region; a light chain variable region

Molecular target: T1, C-Met (Homo sapiens, UniProt P08581)
T1 construct: A549 cells, known to readily express the c-Met receptor; endogenous in cells; host or cells: A549 (endogenous); Cos-7 cells overexpressing c-Met
Experiment: FACS analysis of specific binding to c-Met
Conditions: A549 cells and Cos-7 cells that overexpressed c-Met, antibody 1:100, 4° C., 1 hour, FIG. 11
Procedure: Whether the human modified B7 antibody according to the present invention easily binds specifically to c-Met was examined by FACS analysis. Each of A549 cells, known to readily express the c-Met receptor, and Cos-7 cells that overexpressed c-Met, was prepared, washed twice with PBS, detached by treatment with trypsin, washed again with PBS, and then suspended in PBS (PBA buffer) containing 1% BSA protein. Then, the cells were treated with the purified modified B7 antibody of Example 2 at 1:100 at 4° C. for 1 hour, after which the cells were washed with PBA buffer and precipitated by centrifugation at 8000 rpm for 1 minute. The washing and precipitation process was repeated three times. Then, the modified B7 antibody was treated for 20 minutes with a 1:100 dilution of secondary antibody (Invitrogen, Alexa Fluor 488 goat anti-human IgG, #A11013) that detects human antibody. The cells were washed in the same manner as described above and analyzed by FACS analyzer (BD Cantoll Flow Cytometer), and the results of the analysis are shown in FIG. 11.

T1 sequence (P08581 25-1390): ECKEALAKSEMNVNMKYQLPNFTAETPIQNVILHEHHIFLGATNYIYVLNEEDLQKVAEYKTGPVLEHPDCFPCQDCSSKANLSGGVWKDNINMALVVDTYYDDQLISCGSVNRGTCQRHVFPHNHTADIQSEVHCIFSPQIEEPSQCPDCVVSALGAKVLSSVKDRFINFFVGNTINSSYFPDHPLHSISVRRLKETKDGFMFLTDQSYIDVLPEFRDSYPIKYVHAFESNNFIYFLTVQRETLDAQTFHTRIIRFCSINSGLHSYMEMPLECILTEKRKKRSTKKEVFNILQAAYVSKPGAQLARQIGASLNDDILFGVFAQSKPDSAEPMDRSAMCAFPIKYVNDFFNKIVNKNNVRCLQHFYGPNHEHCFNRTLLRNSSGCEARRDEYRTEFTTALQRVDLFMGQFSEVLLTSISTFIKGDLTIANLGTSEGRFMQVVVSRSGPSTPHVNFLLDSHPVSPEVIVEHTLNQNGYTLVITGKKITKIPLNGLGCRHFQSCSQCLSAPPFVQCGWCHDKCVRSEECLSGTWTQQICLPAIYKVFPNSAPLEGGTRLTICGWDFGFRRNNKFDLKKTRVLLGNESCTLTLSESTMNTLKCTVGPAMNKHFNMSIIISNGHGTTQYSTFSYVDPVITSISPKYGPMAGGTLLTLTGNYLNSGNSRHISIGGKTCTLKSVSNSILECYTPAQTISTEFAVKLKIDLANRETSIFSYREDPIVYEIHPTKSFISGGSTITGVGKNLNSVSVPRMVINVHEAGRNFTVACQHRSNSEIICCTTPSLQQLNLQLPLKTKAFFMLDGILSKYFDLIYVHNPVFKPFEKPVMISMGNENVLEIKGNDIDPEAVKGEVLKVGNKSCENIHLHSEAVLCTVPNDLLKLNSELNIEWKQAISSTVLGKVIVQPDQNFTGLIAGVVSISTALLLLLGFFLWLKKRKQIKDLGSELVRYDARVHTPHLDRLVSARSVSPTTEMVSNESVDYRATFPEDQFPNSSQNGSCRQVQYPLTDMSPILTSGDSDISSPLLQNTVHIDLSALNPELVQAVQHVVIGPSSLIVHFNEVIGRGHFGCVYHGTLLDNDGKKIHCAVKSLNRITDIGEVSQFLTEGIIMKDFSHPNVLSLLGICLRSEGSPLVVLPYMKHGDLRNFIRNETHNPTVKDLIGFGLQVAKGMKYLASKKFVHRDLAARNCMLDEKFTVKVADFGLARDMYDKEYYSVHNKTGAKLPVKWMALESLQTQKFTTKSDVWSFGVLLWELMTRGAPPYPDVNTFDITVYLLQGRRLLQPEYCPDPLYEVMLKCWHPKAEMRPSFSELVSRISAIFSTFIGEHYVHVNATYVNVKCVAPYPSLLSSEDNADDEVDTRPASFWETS

Molecule | specific binding to c-Met by FACS | specific binding to c-Met by FACS (listed as original B7 antibody)
B1 | did bind specifically to c-Met | 
B2 | bind specifically to c-Met | specifically recognizes c-Met
